Assay results reported in the supplement of paper PMC10567573.

B1: GFOD1 (parent)
chain: SDDFCTFQMVLEGGVCCTVTLNFN

Variants of: B1
Assay: protein stability index of a GFP-peptide fusion (GPS, HEK-293T) (PSI 1-6); higher = more stable
Details: c terminus: a fixed tail appended
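Also: lentivirally expressed fusions sorted by FACS into six bins by GFP to DsRed ratio, PSI derived from sequencing read proportions per bin multiplied by bin number.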

Variant | protein stability index
SDDFCTFQMVLEGGVCCRVTLNFN [T18R] | 1.48
SDDFCTFQMVLEGGVCCDVTLNFN [T18D] | 3.76
SDDFCTFQMVLEGGVCCLVTLNFN [T18L] | 2.5
SDDFCTFQMVLEGGVCCVVTLNFN [T18V] | 3.91
SDDFCTFQMVLEGGVCCHVTLNFN [T18H] | 2.14
SDDFCTFQMVLEGGVCCYVTLNFN [T18Y] | 2.44
SDDFCTFQMVLEGGVCCFVTLNFN [T18F] | 2.37
SDDFCTFQMVLEGGVCCEVTLNFN [T18E] | 3.76
SDDFCTFQMVLEGGVCCNVTLNFN [T18N] | 2.33
SDDFCTFQMVLEGGVCCCVTLNFN [T18C] | 2.71
SDDFCTFQMVLEGGVCCIVTLNFN [T18I] | 3.52
SDDFCTFQMVLEGGVCCWVTLNFN [T18W] | 1.95
SDDFCTFQMVLEGGVCCGVTLNFN [T18G] | 3.96
SDDFCTFQMVLEGGVCCAVTLNFN [T18A] | 3.01
SDDFCTFQMVLEGGVCCMVTLNFN [T18M] | 2.07
SDDFCTFQTVLEGGVCCTVTLNFN [M9T] | 3.09
SDDFCTFQVVLEGGVCCTVTLNFN [M9V] | 2.59
SDDFCTFQYVLEGGVCCTVTLNFN [M9Y] | 2.76
SDDFCTFQLVLEGGVCCTVTLNFN [M9L] | 2.7
SDDFCTFQEVLEGGVCCTVTLNFN [M9E] | 1.42
SDDFCTFQQVLEGGVCCTVTLNFN [M9Q] | 1.55
SDDFCTFQKVLEGGVCCTVTLNFN [M9K] | 1.8
SDDFCTFQAVLEGGVCCTVTLNFN [M9A] | 2.43
SDDFCTFQCVLEGGVCCTVTLNFN [M9C] | 2.77

Variant | protein stability index
SDDFCTFQDVLEGGVCCTVTLNFN [M9D] | 2.18
SDDFCTFQHVLEGGVCCTVTLNFN [M9H] | 2.74
SDDFCTFQFVLEGGVCCTVTLNFN [M9F] | 2.5
SDDFCTFQWVLEGGVCCTVTLNFN [M9W] | 2.28
SDDFCTFQIVLEGGVCCTVTLNFN [M9I] | 3.34
SDDFCTFQGVLEGGVCCTVTLNFN [M9G] | 3.57
SDDFCTFQPVLEGGVCCTVTLNFN [M9P] | 1.27
SDDFCTFDMVLEGGVCCTVTLNFN [Q8D] | 2.45
SDDFCTFCMVLEGGVCCTVTLNFN [Q8C] | 2.98
SDDFCTFGMVLEGGVCCTVTLNFN [Q8G] | 1.72
SDDFCTFLMVLEGGVCCTVTLNFN [Q8L] | 3.02
SDDFCTFIMVLEGGVCCTVTLNFN [Q8I] | 3.21
SDDFCTFAMVLEGGVCCTVTLNFN [Q8A] | 3.01
SDDFCTFEMVLEGGVCCTVTLNFN [Q8E] | 2.71
SDDFCTFHMVLEGGVCCTVTLNFN [Q8H] | 3.2
SDDFCTFYMVLEGGVCCTVTLNFN [Q8Y] | 1.44
SDDFCTFMMVLEGGVCCTVTLNFN [Q8M] | 3.81
SDDFCTFNMVLEGGVCCTVTLNFN [Q8N] | 2.13
SDDFCTFKMVLEGGVCCTVTLNFN [Q8K] | 3.33
SDDFCTFWMVLEGGVCCTVTLNFN [Q8W] | 2.86
SDDFCTFVMVLEGGVCCTVTLNFN [Q8V] | 3.25
SDDFCTFRMVLEGGVCCTVTLNFN [Q8R] | 4.3
SDDFCTFQMVPEGGVCCTVTLNFN [L11P] | 3.4
SDDFCTFQMVHEGGVCCTVTLNFN [L11H] | 3.05

Variant | protein stability index
SDDFCTFQMVVEGGVCCTVTLNFN [L11V] | 3.22
SDDFCTFQMVDEGGVCCTVTLNFN [L11D] | 3.52
SDDFCTFQMVIEGGVCCTVTLNFN [L11I] | 2.51
SDDFCTFQMVKEGGVCCTVTLNFN [L11K] | 2.9
SDDFCTFQMVFEGGVCCTVTLNFN [L11F] | 3.38
SDDFCTFQMVAEGGVCCTVTLNFN [L11A] | 1.26
SDDFCTFQMVREGGVCCTVTLNFN [L11R] | 3.43
SDDFCTFQMVYEGGVCCTVTLNFN [L11Y] | 3.1
SDDFCTFQMVLEGKVCCTVTLNFN [G14K] | 2.74
SDDFCTFQMVLEGMVCCTVTLNFN [G14M] | 2.54
SDDFCTFQMVLEGCVCCTVTLNFN [G14C] | 2.19
SDDFCTFQMVLEGWVCCTVTLNFN [G14W] | 2.93
SDDFCTFQMVLEGEVCCTVTLNFN [G14E] | 2.08
SDDFCTFQMVLEGLVCCTVTLNFN [G14L] | 3.96
SDDFCTFQMVLEGRVCCTVTLNFN [G14R] | 1.6
SDDFCTFQMVLEGDVCCTVTLNFN [G14D] | 3.01
SDDFCTFQMVLEGQVCCTVTLNFN [G14Q] | 1.74
SDDFCTFQMVLEGAVCCTVTLNFN [G14A] | 2.87
SDDFCTFQMVLEGYVCCTVTLNFN [G14Y] | 1.83
SDDFCTFQMVLEGPVCCTVTLNFN [G14P] | 2.84
SDDFCTFQMVLEGNVCCTVTLNFN [G14N] | 1.78
SDDFCTFQMVLEGGVCDTVTLNFN [C17D] | 1.8
SDDFCTFQMVLEGGVCWTVTLNFN [C17W] | 2.79
SDDFCTFQMVLEGGVCATVTLNFN [C17A] | 2.49

Variant | protein stability index
SDDFCTFQMVLEGGVCVTVTLNFN [C17V] | 1.89
SDDFCTFQMVLEGGVCPTVTLNFN [C17P] | 2.66
SDDFCTFQMVLEGGVCQTVTLNFN [C17Q] | 2.87
SDDFCTFQMVLEGGVCHTVTLNFN [C17H] | 2.13
SDDFCTFQMVLEGGVCNTVTLNFN [C17N] | 2.77
SDDFCTFQMVLEGGVCTTVTLNFN [C17T] | 3.25
SDDFCTFQMVLEGGVCETVTLNFN [C17E] | 1.21
SDDFCTFQMVLEGGVCKTVTLNFN [C17K] | 2.52
SDDFCTFQMVLEGGVCITVTLNFN [C17I] | 2.36
SDDFCTFQMVLEGGVCFTVTLNFN [C17F] | 3.18
SDDFCTFQMVLEGGVCLTVTLNFN [C17L] | 3.21
SDDFCTFQMVLEGGYCCTVTLNFN [V15Y] | 4.1
SDDFCTFQMVLEGGCCCTVTLNFN [V15C] | 2.55
SDDFCTFQMVLEGGICCTVTLNFN [V15I] | 1.72
SDDFCTFQMVLEGGFCCTVTLNFN [V15F] | 3.41
SDDFCTFQMVLEGGRCCTVTLNFN [V15R] | 3.84
SDDFCTFQMVLEGGMCCTVTLNFN [V15M] | 3.15
SDDFCTFQMVLEGGDCCTVTLNFN [V15D] | 2.58
SDDFCTFQMVLEGGKCCTVTLNFN [V15K] | 2.27
SDDFCTFQMVLEGGPCCTVTLNFN [V15P] | 2.97
SDDFCTFQMVLEGGHCCTVTLNFN [V15H] | 4.25
SDDFCTFQMVLEGGLCCTVTLNFN [V15L] | 4.13
